From article PMC5824745 (The Journal of Neuroscience, 2018)
Blank lines part the entries; values can stand above or below the binder they belong to.

Tests used:
[1] = target: T1, eIF4E Ser209Ala (knock-in, 4Eki mice) (mouse (endogenous in forebrain), UniProt P63073 1-217, Ser209Ala); assay: pull-down; cap-column pulldown: 500 ug forebrain lysate protein with 50 ul m7GDP agarose in buffer C (50 mM MOPS-KOH pH 7.4, 100 mM NaCl, 50 mM NaF, 0.5 mM EDTA, 0.5 mM EGTA, 0.1 mM GTP), 90 min at 4 C; eIF4E held by its ligand m7GDP; cap-bound fraction immunoblotted and quantified, normalised to input; details: partners not purified
T1 construct: The mice are described in Gkogkas et al., 2014; also called Ser209Ala mutant; source: endogenous (knock-in allele), 4Eki mouse forebrain lysate

[2] = target: T2, eukaryotic Initiation Factor 4E (eIF4E), wild type (mouse (endogenous in forebrain), UniProt P63073 1-217); assay: as above; details: partners not purified
T2 construct: also called WT; source: endogenous, WT mouse forebrain lysate

- cap-bound protein (arbitrary units, normalised to input) [1]: 0.83 arbitrary units
- cap-bound protein (arbitrary units, normalised to input) [2]: 1 arbitrary units
B1: eIF4G (natural protein, mouse (endogenous in forebrain), UniProt Q6NZJ6 1-1600, looked up)
chain: MNKAPQPTGPPPARSPGLPQPAFPPGQTAPVVFSTPQATQMNTPSQPRQGGFRSLQHFYPSRAQPPSSAASRVQSAAPARPGPAPHVYPAGSQVMMIPSQISYSASQGAYYIPGQGRSTYVVPTQQYPVQPGAPGFYPGASPTEFGTYAGAYYPAQGVQQFPASVAPAPVLMNQPPQIAPKRERKTIRIRDPNQGGKDITEEIMSGARTASTPTPPQTGGSLEPQPNGESPQVAVIIRPDDRSQGAAIGGRPGLPGPEHSPGTESQPSSPSPTPSPPPILEPGSESNLGVLSIPGDTMTTGMIPMSVEESTPISCETGEPYCLSPEPTLAEPILEVEVTLSKPIPESEFSSSPLQVSTALVPHKVETHEPNGVIPSEDLEPEVESSTEPAPPPLSPCASESLVPIAPTAQPEELLNGAPSPPAVDLSPVSEPEEQAKKVSSAALASILSPAPPVAPSDTSPAQEEEMEEDDDDEEGGEAESEKGGEDVPLDSTPVPAQLSQNLEVAAATQVAVSVPKRRRKIKELNKKEAVGDLLDAFKEVDPAVPEVENQPPTGSNPSPESEGSMVPTQPEETEETWDSKEDKIHNAENIQPGEQKYEYKSDQWKPLNLEEKKRYDREFLLGFQFIFASMQKPEGLPHITDVVLDKANKTPLRQLDPSRLPGINCGPDFTPSFANLGRPALSNRGPPRGGPGGELPRGPAGLGPRRSQQGPRKETRKIISSVIMTEDIKLNKAEKAWKPSSKRTAADKDRGEEDADGSKTQDLFRRVRSILNKLTPQMFQQLMKQVTQLAIDTEERLKGVIDLIFEKAISEPNFSVAYANMCRCLMALKVPTTEKPTVTVNFRKLLLNRCQKEFEKDKDDDEVFEKKQKEMDEAATAEERGRLKEELEEARDIARRRSLGNIKFIGELFKLKMLTEAIMHDCVVKLLKNHDEESLECLCRLLTTIGKDLDFAKAKPRMDQYFNQMEKIIKEKKTSSRIRFMLQDVLDLRQSNWVPRRGDQGPKTIDQIHKEAEMEEHREHIKVQQLMAKGSDKRRGGPPGPPINRGLPLVDDGGWNTVPISKGSRPIDTSRLTKITKPGSIDSNNQLFAPGGRLSWGKGSSGGSGAKPSDTASEATRPATLNRFSALQQTLPAENTDNRRVVQRSSLSRERGEKAGDRGDRLERSERGGDRGDRLDRARTPATKRSFSKEVEERSRERPSQPEGLRKAASLTEDRGRDPVKREATLPPVSPPKAALSVDEVEKKSKAIIEEYLHLNDMKEAVQCVQELASPSLLFIFVRLGIESTLERSTIAREHMGRLLHQLLCAGHLSTAQYYQGLYETLELAEDMEIDIPHVWLYLAELITPILQEDGVPMGELFREITKPLRPMGKATSLLLEILGLLCKSMGPKKVGMLWREAGLSWREFLAEGQDVGSFVAEKKVEYTLGEESEAPGQRTLAFEELRRQLEKLLKDGGSNQRVFDWIDANLNEQQIASNTLVRALMTTVCYSAIIFETPLRVDVQVLKVRARLLQKYLCDEQKELQALYALQALVVTLEQPANLLRMFFDALYDEDVVKEDAFYSWESSKDPAEQQGKGVALKSVTAFFNWLREAEDEESDHN
notes: eIF4G, mouse, endogenous in forebrain; detected with an antibody against eIF4G1 (Cell Signaling Technology 2498); also called eIF4G1; scaffolding protein of eIF4F; source: endogenous, mouse forebrain lysate (WT or 4Eki)

- cap-bound protein (arbitrary units, normalised to input) [1]: 0.775 arbitrary units
B2: Gapdh (natural protein)
chain: not shown
notes: Gapdh, mouse, endogenous in forebrain; also called GAIT complex protein; source: endogenous, mouse forebrain lysate (WT or 4Eki)

- cap-bound protein (arbitrary units, normalised to input) [2]: 1 arbitrary units
B3: Eprs (natural protein, mouse (endogenous in forebrain), UniProt Q8CGC7 1-1512, looked up)
chain: MAALCLTVNAGNPPLEALLAVEHVKGDVSISVEEGKENLLRVSETVAFTDVNSILRYLARIATTSGLYGTNLMEHTEIDHWLEFSATKLSSCDRLTSAINELNHCLSLRTYLVGNSLTLADLCVWATLKGSAAWQEHLKQNKTLVHVKRWFGFLEAQQAFRSVGTKWDVSGNRATVAPDKKQDVGKFVELPGAEMGKVTVRFPPEASGYLHIGHAKAALLNQHYQVNFKGKLIMRFDDTNPEKEKEDFEKVILEDVAMLHIKPDQFTYTSDHFETIMKYAEKLIQEGKAYVDDTPAEQMKAEREQRTESKHRKNSVEKNLQMWEEMKKGSQFGQSCCLRAKIDMSSNNGCMRDPTLYRCKIQPHPRTGNKYNVYPTYDFACPIVDSIEGVTHALRTTEYHDRDEQFYWIIEALGIRKPYIWEYSRLNLNNTVLSKRKLTWFVNEGLVDGWDDPRFPTVRGVLRRGMTVEGLKQFIAAQGSSRSVVNMEWDKIWAFNKKVIDPVAPRYVALLKKEVVPVNVLDAQEEMKEVARHPKNPDVGLKPVWYSPKVFIEGADAETFSEGEMVTFINWGNINITKIHKNADGKITSLDAKLNLENKDYKKTTKITWLAESTHALSIPAVCVTYEHLITKPVLGKDEDFKQYINKDSKHEELMLGDPCLKDLKKGDIIQLQRRGFFICDQPYEPVSPYSCREAPCILIYIPDGHTKEMPTSGSKEKTKVEISKKETSSAPKERPAPAVSSTCATAEDSSVLYSRVAVQGDVVRELKAKKAPKEDIDAAVKQLLTLKAEYKEKTGQEYKPGNPSAAAVQTVSTKSSSNTVESTSLYNKVAAQGEVVRKLKAEKAPKAKVTEAVECLLSLKAEYKEKTGKDYVPGQPPASQNSHSNPVSNAQPAGAEKPEAKVLFDRVACQGEVVRKLKAEKASKDQVDSAVQELLQLKAQYKSLTGIEYKPVSATGAEDKDKKKKEKENKSEKQNKPQKQNDGQGKDSSKSQGSGLSSGGAGEGQGPKKQTRLGLEAKKEENLAEWYSQVITKSEMIEYYDVSGCYILRPWSYSIWESIKDFFDAEIKKLGVENCYFPIFVSQAALEKEKNHIEDFAPEVAWVTRSGKTELAEPIAIRPTSETVMYPAYAKWVQSHRDLPVRLNQWCNVVRWEFKHPQPFLRTREFLWQEGHSAFATFEEAADEVLQILELYARVYEELLAIPVVRGRKTEKEKFAGGDYTTTIEAFISASGRAIQGATSHHLGQNFSKMCEIVFEDPKTPGEKQFAYQCSWGLTTRTIGVMVMVHGDNMGLVLPPRVASVQVVVIPCGITNALSEEDREALMAKCNEYRRRLLGANIRVRVDLRDNYSPGWKFNHWELKGVPVRLEVGPRDMKSCQFVAVRRDTGEKLTIAEKEAEAKLEKVLEDIQLNLFTRASEDLKTHMVVSNTLEDFQKVLDAGKVAQIPFCGEIDCEDWIKKMTARDQDVEPGAPSMGAKSLCIPFNPLCELQPGAMCVCGKNPAKFYTLFGRSY
notes: Eprs (glutamyl-prolyl-tRNA synthetase), mouse, endogenous in forebrain; also called GAIT complex protein; source: endogenous, mouse forebrain lysate (WT or 4Eki)
